B1: S150G/L151V: VEGF-DΔNΔC variant with double mutation S150G/L151V (mouse residues) (protein)
chain: MYREWVVVNVFMMLYVQLVQGSSNEHGPVKRSSQSTLERSEQQIRAASSLEELLRITHSEDWKLWRCRLRLKSFTSMDSRSASHRSTRFAATFYDIETLKVIDEEWQRTQCSPRETCVEVASELGKSTNTFFKPPCVNVFRCGGCCNEEGVICMNTSTSYISKQLFEISVPLTSVPELVPVKVANHTGCKCLPTAPRHPYSIIRRSIQIPEEDRCSHSKKLCPIDMLWDSNKCKCVLQEENPLAGTEDHSHLQEPALCGPHMMFDEDRCECVCKTPCPKDLIQHPKNCSCFECKESLETCCQKHKLFHPDTCSCEDRCPFHTRPCASGKTACAKHCRFPKEKRAAQGPHSRKNP
B2: E148S: VEGF-DΔNΔC variant with mutation E148S (protein)
chain: DYKDDDDKFYDIETLKVIDEEWQRTQCSPRETCVEVASELGKSTNTFFKPPCVNVFRCGGCCNSESLICMNTSTSYISKQLFEISVPLTSVPELVPVKVANHTGCKCLPTAPRHPYS
B3: E148S and S150G double mutation: VEGF-DΔNΔC variant containing both E148S and S150G (VEGF-C residues) (protein)
chain: DYKDDDDKFYDIETLKVIDEEWQRTQCSPRETCVEVASELGKSTNTFFKPPCVNVFRCGGCCNSEGLICMNTSTSYISKQLFEISVPLTSVPELVPVKVANHTGCKCLPTAPRHPYS

test system: VDnmAb; assay: Western blot of conditioned media containing VEGF-DΔNΔC variants probed with VDnmAb; type: binding; details: conditioned media of 293-F cells; in comparison to VEGF-DΔNΔC
Description: Site-directed mutagenesis. DNA encoding VEGF-DΔNΔC, a form of mature human VEGF-D tagged at the N-terminus with the FLAG octapeptide (FIG. 11; SEQ ID NO: 145), was subjected to site-directed mutagenesis by PCR to generate VEGF-DΔNΔC variants. Mutations were introduced by amplification with the following primers: N147Q with 5'-[…] NO: 146) and 5'-[…] with 5'-[…] NO: 148) and 5'-[…] with 5'-[…] NO: 150) and 5'-[…] with 5'-[…] NO: 152) and 5'-[…] with 5'-[…] NO: 154) and 5'-[…] with 5'-[…] NO: 156) and 5'-[…] with 5'-[…] NO: 158) and 5'-[…] NO: 159) (FIG. 12). The desired mutations, as well as the absence of any unwanted mutations, in the resulting DNA fragments were confirmed by nucleotide sequencing. Expression of VEGF-DΔNΔC variants. Plasmids containing DNA encoding VEGF-DΔNΔC or its variants were used for transient transfection of 293-F cells with the FreeStyle MAX 293 Expression System according to manufacturer's instructions (Invitrogen). Cells expressing each variant were cultured in serum-free medium, and 30 ml of conditioned media was collected 7 days post-transfection and used for analysis. Western Blot Analysis. Conditioned media containing different variants of VEGF-DΔNΔC were resolved by SDS-PAGE, transferred to nitrocellulose membrane, probed with M2 anti-FLAG or VDnmAb antibodies labeled with IRDye 800CW according to manufacturer's instructions (LI-COR), and detected with an Odyssey Infrared Imaging System (LI-COR).

Molecule | VDnmAb binding to VEGF-DΔNΔC variant in Western blot
B1 | complete loss of VDnmAb binding
B2 | complete loss of VDnmAb binding
B3 | complete loss of VDnmAb binding
